For this assay, the target named is epidermal growth factor receptor (EGFR) on EGFR positive U87 cells (UniProt P00533). Nature of the assay: FACS saturation binding to EGFR receptor.

As to “Anti-EGFR-Angiopep-2 conjugate (EGFR antibody monoclonal 528 cross-linked to Angiopep-2 with SATA)”, the Half saturation stood at 1.8 nM.

Regarding “EGFR antibody (monoclonal 528 available from ATCC)”, the Bmax (RFU) is 23.6 RFU and the Half saturation is 1.7 nM.

(Values after patent publication EP2164866B1.)
